Test results taken from patent publication US20160060320A1 (UNIVERSITY OF COPENHAGEN, published 2016).
Ends that are not written are not given here.

Molecular target: NCAM on rat hippocampal neurons (rat, UniProt P13596 20-858)
Test: cell-based or functional assay

Sequence of NCAM on rat hippocampal neurons (P13596 20-858): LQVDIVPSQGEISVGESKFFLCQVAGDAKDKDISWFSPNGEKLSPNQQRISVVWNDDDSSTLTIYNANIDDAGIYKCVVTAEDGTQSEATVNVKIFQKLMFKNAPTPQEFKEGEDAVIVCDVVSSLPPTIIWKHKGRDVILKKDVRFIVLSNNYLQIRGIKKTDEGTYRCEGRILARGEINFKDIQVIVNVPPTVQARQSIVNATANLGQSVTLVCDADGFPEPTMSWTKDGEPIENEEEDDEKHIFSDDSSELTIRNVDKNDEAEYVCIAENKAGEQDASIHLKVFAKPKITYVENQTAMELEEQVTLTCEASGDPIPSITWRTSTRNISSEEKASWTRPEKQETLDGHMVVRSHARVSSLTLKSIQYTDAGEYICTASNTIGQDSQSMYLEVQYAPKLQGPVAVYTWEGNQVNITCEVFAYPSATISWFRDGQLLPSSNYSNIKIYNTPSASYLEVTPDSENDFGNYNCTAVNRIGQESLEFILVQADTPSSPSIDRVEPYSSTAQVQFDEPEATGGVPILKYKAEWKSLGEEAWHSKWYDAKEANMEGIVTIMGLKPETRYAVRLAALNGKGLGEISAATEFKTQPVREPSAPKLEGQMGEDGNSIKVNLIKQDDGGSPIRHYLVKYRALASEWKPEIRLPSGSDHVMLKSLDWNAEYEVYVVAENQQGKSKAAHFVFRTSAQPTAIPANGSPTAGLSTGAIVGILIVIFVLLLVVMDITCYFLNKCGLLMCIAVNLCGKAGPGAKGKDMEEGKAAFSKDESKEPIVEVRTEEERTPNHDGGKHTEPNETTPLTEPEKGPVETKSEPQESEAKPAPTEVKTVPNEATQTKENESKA

Neuritogenic effect, 1 µM NPY fragment (% of control) | Neuritogenic effect, 3 µM NPY fragment (% of control) | Binder
97.8 % of control | 99.1 % of control | YPSKPDNPGEDAPAEDMARY [NPY1-20]
104 % of control | 91.4 % of control | SALRHYINLITRQR [NPY22-35]
108 % of control | 186 % of control | YSALRHYINLITRQRY-NH2 [NPY21-36]
154 % of control | 233 % of control | YSALRHYINLITRQR [NPY21-35]
89.1 % of control | 91.7 % of control | ALRHYINLITRQRA (ends and bridges not checked) [NPY23-36 ala36]
87.7 % of control | 97.5 % of control | YSALRHYINLITRQ [NPY21-34]
96.2 % of control | 104 % of control | ALRHYINLITRQR [NPY23-35]
95.9 % of control | 96.1 % of control | RHYINLITRQRY-NH2 [NPY25-36]
96.9 % of control | 103 % of control | LRHYINLITRQR [NPY24-35]
107 % of control | 156 % of control | ALRHYINLITRQRY-NH2 [NPY23-36]
166 % of control | 180 % of control | Neuropeptide Y (NPY; NPY1-36; full-length NPY) (Tyr36 amidated) peptide: not shown
100 % of control | 91.8 % of control | ITRQRY-NH2 (also: Tyr36 (pos 6): amidated per mods, acetylation) [NPY31-36]
174 % of control | 305 % of control | PAEDMARYYSALRHYINLITRQR [NPY13-35]
110 % of control | 285 % of control | RQRTILNIYHRLASYYRAMDEAPADEGPNDPKS [NPY3-35 reversed sequence]
107 % of control | 99.1 % of control | YINLITRQRY-NH2 [NPY27-36]
95.4 % of control | 94.1 % of control | ASALRHYINLITRQR [NPY21-35 ala21]
